Experimental data from US20050119454A1.

Target: human long isoform dopamine D2 (D2DA) receptor (human), P14416
Experiment: cell-based or functional assay

Chain of human long isoform dopamine D2 (D2DA) receptor (human), P14416 (P14416 whole entry, canonical isoform): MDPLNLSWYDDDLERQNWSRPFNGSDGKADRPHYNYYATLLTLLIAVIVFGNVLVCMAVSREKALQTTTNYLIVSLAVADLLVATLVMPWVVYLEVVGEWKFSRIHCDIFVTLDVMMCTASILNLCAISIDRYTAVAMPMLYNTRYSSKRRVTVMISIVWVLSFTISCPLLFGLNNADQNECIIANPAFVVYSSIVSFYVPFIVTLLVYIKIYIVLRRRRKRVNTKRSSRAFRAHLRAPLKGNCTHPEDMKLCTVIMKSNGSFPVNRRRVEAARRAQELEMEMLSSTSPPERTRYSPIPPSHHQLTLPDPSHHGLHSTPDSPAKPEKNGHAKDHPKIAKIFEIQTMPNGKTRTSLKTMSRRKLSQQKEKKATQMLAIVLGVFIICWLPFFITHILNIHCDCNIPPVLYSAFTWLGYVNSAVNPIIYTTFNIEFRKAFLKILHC

B1: H-…-OH (peptide)
peptide: H-SHQRWEYKGVNCIVY-OH
B1 gave a potentiation of the dopamine-induced increment in total milli-pH units (EAR), CHO system, paired one-tailed t-test of 28.1 t statistic and a potentiation of the dopamine-induced increment in total milli-pH units (EAR), LtK system, paired one-tailed t-test of 13.3 t statistic.

B2: … (peptide)
peptide: ERNRKPLRPKNKYLI
B2 gave an EAR response to dopamine, LtK system, paired one-tailed t-test of 25.5 t statistic and a dopamine-induced EAR, CHO cells, paired one-tailed t-test of 1.54 t statistic.

B3: H-…-OH (peptide)
peptide: H-THQAFHYCNKQCLVI-OH
modifications: cysteine pairing not given here
Work on B3 yielded a potentiation of the dopamine response (EAR), CHO system, paired one-tailed t-test of 1.31 t statistic and a potentiation of the dopamine response (EAR), LtK system, paired one-tailed t-test of 0.62 t statistic.

B4: H-…-OH (peptide)
peptide: H-ERNRKPYRPKNKYLL-OH
Binder B4 has an EAR response to dopamine, LtK system, paired one-tailed t-test of 69.8 t statistic and a dopamine-induced EAR, CHO cells, paired one-tailed t-test of 1.28 t statistic.
